Here are results for one substance from paper PMC12242769.

Test in all cases: EMSA
Background: A gel shift assay detects complexes by their altered migration in electrophoresis.

Data set [1] has as its system TbLa LaMΔ (Trypanosoma brucei). As to conditions: native tRNA modifications except queuosine (from TbTGT2Δ cells); 50 mM HEPES pH 7.5, 1 mM MgCl2, 5 mM KCl; on ice 30 min; ~0.6 nM tRNA, 10 µl; 6% native PAGE.
For data set [2], the system named is TbLa RRM1Δ (Trypanosoma brucei). As to conditions: native tRNA modifications except queuosine (from TbTGT2Δ cells); 50 mM HEPES pH 7.5, 1 mM MgCl2, 5 mM KCl; on ice 30 min; ~0.6 nM tRNA, 10 µl; 6% native PAGE.
Data set [3] deals with TbLa (wild type) (Trypanosoma brucei). The note with it: 1 mM Mg2+; apparent Kd from Hill fit; native tRNA modifications except queuosine (from TbTGT2Δ cells); 50 mM HEPES pH 7.5, 1 mM MgCl2, 5 mM KCl; on ice 30 min; ~0.6 nM tRNA, 10 µl; 6% native PAGE.

As to native mature tRNATyr lacking Q34, the Kd in data set [1] worked out at 855 nM; in data set [2], 446 nM; in data set [3], 216 nM.
